Laboratory results: the RNAGym collection of RNA variant scans (doi:10.1073/pnas.2313332121)

B1: TPR t1 (parent)
chain: GACCAAUCUGCCCUCAGAGCUCGAGAACAUCUUCGGAUGCAGAGGAGGCAGGCUUCGGUGGCGCGAUAGCGCCAACGUCCUCAACCUCCAAUGCAUCCCACCACAUGAUGAUGCCUGAAGAGCCUUGGUUUUUUG

Variants of: B1
Experiment: polymerase ribozyme fitness, log enrichment relative to wild type (log ratio); higher = more active; in vitro selection for triplet polymerase activity
Summary of the method: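 PCR was used to build mutant libraries for each subunit of a heterodimeric triplet polymerase ribozyme, which were then transcribed. A single in vitro selection round, in triplicate, used a frozen incubation at −7 °C and recovered extended constructs by gel excision, streptavidin beads and RT-PCR. Fitness is the logarithm of genotype enrichment relative to wild-type enrichment, averaged over replicates with inverse-variance weights. The logarithm is base 2, and after Illumina sequencing only genotypes with ≥10 input reads and ≥1 read per output were kept.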

Row | Variant | polymerase ribozyme fitness (log ratio)
1 | U59G C124U | 1.25
2 | G60A A66U | -1.29
3 | G61A C80A | -3.47
4 | G60A C82A A95G | 0.0608
5 | G57C C97U | -0.494
6 | G57C C97G | -4.65
7 | G60U U130C | 0.326
8 | G60U U112G U116C | -1.99
9 | G57C G61A C97G | -4.41
10 | U59G A90U | -0.957
11 | G61A A108U G120U | -6.8
12 | G58A G71U C79A | -1.79
13 | U59A C88U A118U | 0.167
14 | U59C U78C A83U C115A | -1.1
15 | G61A U78G C123A U133A | 0.482
16 | G60C C104A | -2.18
17 | G61A C73U A91C C101A | -2.91
18 | G57C G110U G120U | -4.33
19 | G60A C104U | 0.164
20 | U59C G127U | -0.462
21 | G60A C79A A84U | -2.32
22 | U59A C114A U130A | -2.17
23 | G60A C80A C88A | -3.61
24 | G61A U67A | -6.59

Row | Variant | polymerase ribozyme fitness (log ratio)
25 | G60C G93U C114A | -2.51
26 | G60A G120C | 0.892
27 | G60A U116C | -0.935
28 | G58A C82G C88A G127U | -3.33
29 | G60C U129C | -0.277
30 | G61C C86A | -2.15
31 | G58C C85A | 0.0552
32 | G61A C64U U81G G120U | -7.13
33 | G61A A75U U96G A121G U129C G135U | 0.938
34 | G58A C64U U78C C86U A111C U129C | -1.68
35 | G61C C85U | -1.81
36 | G60A G110U | -1.74
37 | G60A C99U G127A | -4.87
38 | G60U U112A | 1.6
39 | G60C C80A | -4.35
40 | G60A G122A U132C | -0.379
41 | G60A A100U | -0.621
42 | G57C C62A G122A | -3.31
43 | G60U G117A | -0.487
44 | G60U G117C | -3.52
45 | G60U A118C | -2.43
46 | G60U A118U | -0.552
47 | G60C C102A | -3.75
48 | G61A C97A | -3.78

Row | Variant | polymerase ribozyme fitness (log ratio)
49 | U59A G77U G117U | -2.87
50 | G60A U112C | 1.25
51 | G61A C88U A105G | -2.9
52 | G60U A74U G110U G127A | -4.43
53 | G58U A103C A121G | -4.29
54 | G60U A75U U87C | 0.354
55 | G60A G93A | 0.0256
56 | G60A U131G | 0.0187
57 | G60C G107A | -5.47
58 | G60C G107U | -4.16
59 | G60A C80A C85G C98U | -5.64
60 | G60C A121U U125G U129G | -0.914
61 | G60U U78C | -0.915
62 | U59C A91C G120C U133C G135U | -0.803
63 | G61C A74U | -4.43
64 | G60A C94U C124U | 1.59
65 | G57C C115A | 0.0474
66 | G58A C114G | -3.37
67 | G61A U129G U130A | -2.53
68 | U59A G93U | -0.878
69 | G60A C94A G128C | -3.09
70 | G57C G63A A100U U112C U125C | -0.23
71 | U59G G77U G117A | -1.91
72 | G58U C104U A105U G110A C124U U133G | -7.29

Row | Variant | polymerase ribozyme fitness (log ratio)
73 | G58C C102A | -2.66
74 | G61A C98A | -4.75
75 | G61A C98U | -0.37
76 | G57U C70U C76G U131C | -0.726
77 | G61A G69A | -4.21
78 | G61A U112C U129A | 1.39
79 | G57U U81G | -0.222
80 | U59G G63A U87C C114U | -4.39
81 | G61A C86U U116A G117A | -2.15
82 | G60A U96C A118G | -0.126
83 | G60U C94A | -0.596
84 | U59C U106G U112G | -2.31
85 | U59C C72U G117A | -1.45
86 | U59C A119G | 0.816
87 | G61A C88G C98G C123G | -6.3
88 | G57C A91C | -0.77
89 | G60U A68G | -3.02
90 | G60U U87G U129G | -0.951
91 | U59C A91G U133G | -2.51
92 | G61C C64G A111C | -6.11
93 | G57C C88U A95U | -1.98
94 | G57U G58C | -1.12
95 | G60C U109G G120A | -5.9
96 | G61C A84U | -1.95

Row | Variant | polymerase ribozyme fitness (log ratio)
97 | G57U A74G | -0.836
98 | U59C U78G | -0.0388
99 | G57C C62U G135U | -1.15
100 | U59G A111C | 0.213
101 | G61C A66U | -0.911
102 | G61A C64U C72U A91U | -1.32
103 | G58C G77A C97U | 0.13
104 | G60A G77C A111C C123A | -3.68
105 | G60A G77U | -0.312
106 | G60U G61C | -1.45
107 | U59A U81A A119U | -0.551
108 | G60A G117U | -1.75
109 | G60A G117C | -2.42
110 | G58C A84U A100C | -1.55
111 | G61A G113A | -0.325
112 | G57A U78G C82G | -0.698
113 | G57U C62G A121G U130A | -0.352
114 | G58A C62A | -2.66
115 | G57U U78G C114U A118U | -3.81
116 | G61A C104A G110A | -3.83
117 | U59C C82A C88G | -2.83
118 | G58U G60A U87A A103U | -5.31
119 | G60A A121C | 1.29
120 | U59C U109C C114A | -6.67

Row | Variant | polymerase ribozyme fitness (log ratio)
121 | U59A C70U U125A U133A | -1.97
122 | G60U C89G U96G U129A | -3.9
123 | G57U C94A | -1.08
124 | G60C C94A C102U U106A | -6.72
125 | G61A G77A C89U U126A | -2.77
126 | G60C A74U U81G C115A | -3.12
127 | G57C G60U A100U U130G | -0.0419
128 | G60C C115A G120U | -0.0517
129 | U59C C64U C82G C94U | -1.7
130 | G60A C99A A103C A111C | -6.52
131 | G61A G113C G128U | -4.09
132 | G61A C85G | 0.134
133 | G61A U87C | -0.201
134 | U59A C104U | 0.251
135 | G57U G61C U92C | -2.88
136 | U59G G61A | -2.76
137 | U59A G60A | 0.122
138 | G57U G71C | -3.42
139 | G57C C62U | -0.549
140 | G61A C70G | -4.02
141 | U59A C89U C124A U125A | 1.78
142 | G61A C102U | -1.04
143 | G57C G58A C114U | -3.53
144 | G60U C79G C114U | -4.12

Row | Variant | polymerase ribozyme fitness (log ratio)
145 | G57C G135U | -0.876
146 | G60U U87A | 0.377
147 | G57C C97U G110U C115U | -6.98
148 | G61A C115A U129A U132A | -3.87
149 | G57U C62U U67C U87G C101G G113C | -6.27
150 | G58C G71C C115A A118U | -1.75
151 | G60U C101A | -0.256
152 | G60A C94U | -0.196
153 | G61A C88U A100U G120A | -0.447
154 | G57U C123U | 0.41
155 | G60C G110C | -4.39
156 | U59G C73A C88A | -2.15
157 | G58C C72G A121U | 1.78
158 | G58C U133A | 0.072
159 | G58C C80A | -3.5
160 | G58C G63C | -2.61
161 | G57U G77C U130G | -2.56
162 | G61A G107A | -3.6
163 | G57U C72G U96A | -2.83
164 | G58C C82G U87G G93C C123A | -0.69
165 | G58A A111C A119C G120U G127U | -1.16
166 | G58C G63C G128A | -1.77
167 | G61A C64U | -1.86
